From patent US20190336574A1 (TRUSTEES OF PRINCETON UNIVERSITY, published 2019)
Substitutions are numbered along the chain they refer to. Numbers in names are those of the source. Where no end group is shown, it is not given here.

T1: HA-SND1, full-length human, wild type (human, UniProt Q7KZF4 1-910)
T1 construct: Full-length, HA-tagged; Expressed in HEK293T cells, tested in lysate; also called HA-tagged SND1; WT HA-SND1
T1 sequence: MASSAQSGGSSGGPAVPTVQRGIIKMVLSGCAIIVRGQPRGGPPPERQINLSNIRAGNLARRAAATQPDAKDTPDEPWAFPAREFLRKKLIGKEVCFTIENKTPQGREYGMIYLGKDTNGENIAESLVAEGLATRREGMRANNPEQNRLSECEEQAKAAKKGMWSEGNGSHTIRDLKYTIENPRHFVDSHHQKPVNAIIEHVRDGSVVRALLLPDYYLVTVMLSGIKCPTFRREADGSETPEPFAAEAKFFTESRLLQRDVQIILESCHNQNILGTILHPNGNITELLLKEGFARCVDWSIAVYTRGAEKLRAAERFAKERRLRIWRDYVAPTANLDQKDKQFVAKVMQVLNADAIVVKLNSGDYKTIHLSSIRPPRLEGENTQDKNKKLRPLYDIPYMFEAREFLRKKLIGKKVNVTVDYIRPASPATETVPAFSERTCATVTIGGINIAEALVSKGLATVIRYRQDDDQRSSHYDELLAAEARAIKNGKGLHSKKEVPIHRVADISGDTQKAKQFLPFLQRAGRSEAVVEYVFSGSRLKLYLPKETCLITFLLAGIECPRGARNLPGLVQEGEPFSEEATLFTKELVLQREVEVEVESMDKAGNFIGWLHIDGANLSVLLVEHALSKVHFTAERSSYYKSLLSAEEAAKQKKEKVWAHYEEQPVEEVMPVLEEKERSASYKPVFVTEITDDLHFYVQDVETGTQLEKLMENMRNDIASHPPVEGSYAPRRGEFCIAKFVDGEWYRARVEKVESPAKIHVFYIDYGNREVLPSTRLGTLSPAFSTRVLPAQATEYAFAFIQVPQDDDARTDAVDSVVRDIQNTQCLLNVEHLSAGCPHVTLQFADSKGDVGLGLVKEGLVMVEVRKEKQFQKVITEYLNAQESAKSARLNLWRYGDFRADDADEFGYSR

T2: His-SND1 (16-339), SN1/2 domains, wild type (human, UniProt Q7KZF4 16-339)
T2 construct: also called His6-SND1 harboring the SN1/2 domains; not shown: N-terminal His tag (His6, His8 or His) with TEV site, pQlink vector
T2 sequence: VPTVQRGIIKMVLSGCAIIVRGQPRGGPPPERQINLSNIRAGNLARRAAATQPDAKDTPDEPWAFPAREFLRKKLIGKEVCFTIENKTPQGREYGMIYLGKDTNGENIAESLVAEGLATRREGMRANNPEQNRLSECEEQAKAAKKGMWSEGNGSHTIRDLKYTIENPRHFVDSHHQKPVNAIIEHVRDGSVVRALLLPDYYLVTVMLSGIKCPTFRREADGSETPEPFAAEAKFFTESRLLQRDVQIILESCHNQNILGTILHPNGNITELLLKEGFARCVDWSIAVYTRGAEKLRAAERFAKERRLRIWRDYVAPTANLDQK

B1: Myc-MTDH E407R, full-length human (other)
chain: MAARSWQDELAQQAEEGSARLREMLSVGLGFLRTELGLDLGLEPKRYPGWVILVGTGALGLLLLFLLGYGWAAACAGSRKKRRSPPRKREEAAAVPAAAPDDLALLKNLRSEEQKKKNRKKLSEKPKPNGRTVEVAEGEAVRTPQSVTAKQPPEIDKKNEKSKKNKKKSKSDAKAVQNSSRHDGKEVDEGAWETKISHREKRQQRKRDKVLTDSGSLDSTIPGIENTITVTTEQLTTASFPVGSKKNKGDSHLNVQVSNFKSGKGDSTLQVSSGLNENLTVNGGGWNEKSVKLSSQISAGEEKWNSVSPASAGKRKAEPSAWSQDTGDANTNGKDWGRSWSDRSIFSGIGSTAEPVSQSTTSDYQWDVSRNQPYIDDEWSGLNGLSSADPNSDWNAPAEEWGNWVDRERASLLKSQEPIPDDQKVSDDDKEKGEGALPTGKSKKKKKKKKKQGEDNSTAQDTEELEKEIREDLPVNTSKTRPKQEKAFSLKTISTSDPAEVLVKNSQPIKTLPPATSTEPSVILSKSDSDKSSSQVPPILQETDKSKSNTKQNSVPPSQTKSETSWESPKQIKKKKKARRET
notes: Full-length, Myc-tagged; also called SPM33
B2: Myc-MTDH D406R, full-length human (other)
chain: B1 chain with D406R, R407E
notes: Full-length, Myc-tagged; also called SPM32
B3: Myc-MTDH D393R, full-length human (other)
chain: B1 chain with D393R, R407E
notes: Full-length, Myc-tagged; also called SPM12
B4: Myc-MTDH W404D, full-length human (other)
chain: B1 chain with W404D, R407E
notes: Full-length, Myc-tagged; also called SPM31
B5: Myc-MTDH D389R, full-length human (other)
chain: B1 chain with D389R, R407E
notes: Full-length, Myc-tagged; also called SPM11
B6: Myc-MTDH W394A, full-length human (other)
chain: B1 chain with W394A, R407E
notes: Full-length, Myc-tagged
B7: Myc-MTDH W401A, full-length human (other)
chain: B1 chain with W401A, R407E
notes: Full-length, Myc-tagged
B8: Myc-MTDH W394D, full-length human (other)
chain: B1 chain with W394D, R407E
notes: Full-length, Myc-tagged; also called SPM13
B9: GST-MTDH (364-582) N403A (other)
chain: YQWDVSRNQPYIDDEWSGLNGLSSADPNSDWNAPAEEWGAWVDEERASLLKSQEPIPDDQKVSDDDKEKGEGALPTGKSKKKKKKKKKQGEDNSTAQDTEELEKEIREDLPVNTSKTRPKQEKAFSLKTISTSDPAEVLVKNSQPIKTLPPATSTEPSVILSKSDSDKSSSQVPPILQETDKSKSNTKQNSVPPSQTKSETSWESPKQIKKKKKARRET
notes: not shown: N-terminal GST tag with TEV site, pQlink vector
B10: GST-MTDH (364-582) W401D (other)
chain: B9 chain with W38D, A40N
notes: as for B9
B11: GST-MTDH (386-407), wild type (other)
chain: SSADPNSDWNAPAEEWGNWVDE
modifications: not fully specified (N-terminus)
notes: as for B9

Molecular target: T1, HA-SND1, full-length human, wild type
Test: co-IP (anti-Myc) from HEK293T lysates, western blot

Q: Does B1 bind?
A: Result: binds

Q: Does B2 bind?
A: Result: binds

Q: Does B3 bind?
A: Result: binds

Q: Does B4 bind?
A: Result: binds

Molecular target: T1, HA-SND1, full-length human, wild type
Test: co-IP from HEK293T lysates (anti-HA per text, anti-Myc per legend), western blot
Protocol: Immunoprecipitation and western blot: For in vivo immunoprecipitation (IP) experiments, cultured cells were washed in cold PBS and lysed in lysis buffer (20 mM Tris pH 7.4, 0.15 M NaCl, 1 mM EDTA, 1 mM EGTA, 1% Tx-100, 0.0025 M Na2P2O7, 1 mM β-glycerolphosphate, 1 mM Na3VO4, and 1 mM NaF) with an EDTA-free protease inhibitor mixture (Roche Applied Science) and PMSF. Cell lysates were then incubated on ice for 10 min, centrifuged, and precleared by incubating with protein A/G beads (Santa Cruz Biotechnology) for 1 h at 4° C. For IP bead preparation, 30 μl of protein A/G beads were incubated with 5 μg of antibodies for 2 h at 4° C. IPs were carried out for overnight at 4° C., and beads were centrifuged, washed and subsequently boiled for 5 min in SDS protein loading buffer to elute bound protein. IP lysates were subjected to western blotting with indicated antibodies.
It was further examined how the MTDH and SND1 mutations identified at this interface affected the interaction of full-length proteins in mammalian cells. Full-length HA-tagged SND1 was co-expressed with full-length Myc-tagged wild-type (WT) or mutant MTDH in HEK293T cells and cell lysates were subjected to anti-HA immunoprecipitation for SND1 pull down. Consistent with in vitro observations (FIG. 22A), WT MTDH, but not mutants W394A, W394D, or W401A, was pulled down along with HA-SND1 (FIG. 22C, in red). […] Likewise, the SND1 mutations that affected MTDH-binding in vitro also affected the binding of full-length proteins in vivo to similar levels.

Q: Does B5 bind?
A: Result: binds

Q: Does B6 bind?
A: Result: no binding

Q: Does B7 bind?
A: Result: no binding

Q: Does B8 bind?
A: Result: no binding

Molecular target: T2, His-SND1 (16-339), SN1/2 domains, wild …
Test: GST pull-down on glutathione resin, SDS-PAGE, Coomassie blue; normalised percentage of binding, mean±SEM of three experiments
Text: The proteins bound to GS4B were examined on SDS-PAGE and visualized by Coomassie blue staining. […] The bound proteins were examined as in (FIG. 22A). For both (FIG. 22A) and (FIG. 22B), experiments were repeated three times; representative results are shown. The normalized percentage of binding was averaged from three experiments; mean±SEM was shown below the data. (FIG. 22C) HEK293T cells were transfected with human HA-SND1, WT Myc-MTDH or Myc-MTDH with indicated single point mutation. Lysates were immunoprecipitated with anti-Myc antibody and immunoblotted with the indicated antibodies. (FIG. 22D) HEK293T cells were transfected with human Myc-MTDH, WT HA-SND1 or mutant HA-SND1 with indicated single point mutations or deletions. Lysates were immunoprecipitated with anti-Myc and immunoblotted with the indicated antibodies.
GST-Mediated Pull-Down Assay: ˜20 μg of GST-MTDH (different truncation forms and site mutants) was bound to 10 μl of glutathione resin via GST tag. The resin was washed with 200 μl assay buffer (25 mM Tris, PH8.0, 150 mM NaCl, 3 mM DTT) three times to remove the excess unbound protein. […] The mixture was washed with 200 μl assay buffer twice before examined by SDS-PAGE, and visualized by Coomassie blue staining. The experiments were repeated 3 times and the ratio of SND1 associated with GST-MTDH was analyzed by ImageJ.
Identification of MTDH and SND1 mutants deficient in binding: To gain insight into how the interface characterized above contributes to MTDH-SND1 interaction, structure-guided mutagenesis studies were performed.

Q: B9 was tested. Which “% Maximum binding” value did it give?
A: Its value is 68%.

Q: Which “% Maximum binding” value does the source give for B10 here?
A: Its value is 46%.

Molecular target: T2, His-SND1 (16-339), SN1/2 domains, wild …
Test: GST titration pull-down: GST-MTDH (386-407) on glutathione resin, SND1 (SN1/2) at 10, 3, 1, 0.5, 0.25, 0.12 (the sheet prints mM, paragraph 254 says µM), SDS-PAGE, Coomassie blue

Q: How did the “Estimated Binding Affinity” value turn out when B11 was run?
A: Its value is ~1.2 µM.

Q: SSADPNSDWNAPAEDWGLWVDE (other, member of the group m64) [E400D/N403L] was tested. Which “Estimated Binding Affinity” value did it give?
A: The value was ~0.9 µM.

Q: For SSADPNSDWNDPAEEWGNWVDE (other, member of the group m64) [A396D], which “Estimated Binding Affinity” value is on record?
A: The value was ~1.5 µM.

Q: SSADPNSDWKAPAEEWGNWVDE (other, member of the group m64) [N395K] was tested. Which “Estimated Binding Affinity” value did it give?
A: The value was ~0.8 µM.
